Measured values published in publication PMC3642082 (PLoS Pathogens, 2013).

Assays:
[1] = molecular target: T1, JRFL gp120 monomer expressed in HEK 293S cells (HIV-1 clade B, isolate JR-FL, UniProt Q75760, strain); assay: ITC; details: both partners purified
T1 construct: also called gp120 with immature oligomannose glycans

soluble CD4 = molecular target: T2, soluble CD4 (UniProt P01730); assay: ITC; details: both partners purified
T2 construct: also called sCD4

Binder | binding result [1] | Kd (soluble CD4)
PGT122 Fab (Fab, V domains shown) VH: QVHLQESGPGLVKPSETLSLTCNVSGTLVRDNYWSWIRQPLGKQPEWIGYVHDSGDTNYNPSLKSRVHLSLDKSKNLVSLRLTGVTAADSAIYYCATTKHGRRIYGVVAFKEWFTYFYMDVWGKGTSVTVSS VL: VSVAPGQTARITCGEESLGSRSVIWYQQRPGQAPSLIIYNNNDRPSGIPDRFSGSPGSTFGTTATLTITSVEAGDEADYYCHIWDSRRPTNWVFGEGTTLIVL | binds | 
JRFL gp120 monomer (near full-length gp120 monomeric construct) (natural protein, also called monomeric gp120) not shown |  | 0.021 µM
PGT121 Fab (Fab, V domains shown) VH: QMQLQESGPGLVKPSETLSLTCSVSGASISDSYWSWIRRSPGKGLEWIGYVHKSGDTNYSPSLKSRVNLSLDTSKNQVSLSLVAATAADSGKYYCARTLHGRRIYGIVAFNEWFTYFYMDVWGNGTQVTVSS VL: DISVAPGETARISCGEKSLGSRAVQWYQHRAGQAPSLIIYNNQDRPSGIPERFSGSPDSPFGTTATLTITSVEAGDEADYYCHIWDSRVPTKWVFGGGTTLTVL | binds | 
PGT123 Fab (Fab, V domains shown) VH: QLHLQESGPGLVKPPETLSLTCSVSGASINDAYWSWIRQSPGKRPEWVGYVHHSGDTNYNPSLKRRVTFSLDTAKNEVSLKLVDLTAADSATYFCARALHGKRIYGIVALGELFTYFYMDVWGKGTAVTVSS VL: SSMSVSPGETAKISCGKESIGSRAVQWYQQKPGQPPSLIIYNNQDRPAGVPERFSASPDFRPGTTATLTITNVDAEDEADYYCHIYDARGGTNWVFDRGTTLTVL | binds | 
